This note sets out measurements from paper PMC5469197, “ANGUSTIFOLIA, a Plant Homolog of CtBP/BARS Localizes to Stress Granules and Regulates Their Formation” (Frontiers in Plant Science, 2017).

The test addresses PROTEIN KINASE SU… PROTEIN (AIK1), Prot-A fusion (Arabidopsis thaliana). In words: co-IP; LUMIER in HEK293TN cells: Prot-A fusion co-transfected with Renilla luciferase fusion (AN always the luciferase fusion with the interactors); luciferase activity before (input) and after pulldown; percentage pulldown = pulldown/input x 100; empty vectors as negative control; positive if more than two times the background.

PROTEIN KINASE SU… PROTEIN (AIK1), Prot-A fusion (Arabidopsis thaliana), sequence (main, as listed by the source): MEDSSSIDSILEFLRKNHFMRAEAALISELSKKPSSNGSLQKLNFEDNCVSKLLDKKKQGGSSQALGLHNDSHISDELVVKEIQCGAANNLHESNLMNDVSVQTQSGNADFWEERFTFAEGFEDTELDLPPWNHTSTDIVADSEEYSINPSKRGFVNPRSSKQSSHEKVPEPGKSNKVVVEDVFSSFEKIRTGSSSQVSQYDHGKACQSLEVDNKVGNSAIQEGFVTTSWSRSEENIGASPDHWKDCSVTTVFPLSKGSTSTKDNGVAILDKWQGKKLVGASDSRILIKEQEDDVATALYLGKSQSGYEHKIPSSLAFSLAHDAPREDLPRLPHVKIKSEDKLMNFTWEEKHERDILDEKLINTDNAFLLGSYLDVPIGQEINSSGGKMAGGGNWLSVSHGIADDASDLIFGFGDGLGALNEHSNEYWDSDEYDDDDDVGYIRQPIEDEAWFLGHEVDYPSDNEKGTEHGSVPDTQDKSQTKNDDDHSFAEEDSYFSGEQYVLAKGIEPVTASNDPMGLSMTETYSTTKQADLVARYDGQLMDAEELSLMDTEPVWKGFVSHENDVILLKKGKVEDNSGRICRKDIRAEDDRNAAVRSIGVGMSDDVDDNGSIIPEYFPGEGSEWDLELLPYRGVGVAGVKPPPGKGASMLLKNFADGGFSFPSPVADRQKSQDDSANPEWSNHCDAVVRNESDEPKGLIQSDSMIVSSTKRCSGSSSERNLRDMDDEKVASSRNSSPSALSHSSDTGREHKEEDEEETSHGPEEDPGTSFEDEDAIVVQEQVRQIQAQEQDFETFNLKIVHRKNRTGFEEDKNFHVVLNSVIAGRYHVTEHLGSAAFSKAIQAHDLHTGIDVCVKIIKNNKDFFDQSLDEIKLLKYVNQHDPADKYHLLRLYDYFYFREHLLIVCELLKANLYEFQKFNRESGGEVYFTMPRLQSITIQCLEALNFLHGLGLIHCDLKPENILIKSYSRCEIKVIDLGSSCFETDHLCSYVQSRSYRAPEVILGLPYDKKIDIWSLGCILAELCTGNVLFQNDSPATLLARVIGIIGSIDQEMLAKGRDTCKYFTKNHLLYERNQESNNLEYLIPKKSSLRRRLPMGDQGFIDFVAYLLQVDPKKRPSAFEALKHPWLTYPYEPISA

B1: AN^DOQ, Renilla luciferase fusion (LUMIER) (natural protein)
chain: MSKIRSSATMPHRDQPSPASPHVVTLNCIEDCALEQDSLAGVAGVEYVPLSRIADGKIESATAVLLHSLAYLPRAAQRRLRPHQLILCLGSADRAVDSTLAADLGLRLVHVDTSRAEEIADTVMALILGLLRRTHLLSRHALSASGWLGSLQPLCRGMRRCRGMVLGIVDRSVSARYLASRSLAFKMSVLYFDVPEGDEERIRPSRFPRAARRMDTLNDLLAASDVISLHCALTNDTVQILNAECLQHIKPGAFLVNTGSCQLLDDCAVKQLLIDGTIAGCALDGAEGPQWMEAWVKEMPNVLILPRSADYSEEVWMEIREKAISILHSFFLDGVIPSNTVSDEEVEESEASEEEEQSPSKHEKLAIVESTSRQQGESTLTSTEIVRREASELKESLSPGQQHVSQNTAVKPEGRRSRSGKKAKKRHSQQKYMQKTDGSSGLNEESTSRRDDIAMSDTEEVLSSSSRCASPEDSRSRKTPLEVMQESSPNQLVMSSKKFIGKSSELLKDGYVVALYAKDLSGLHVSRQRTKNGGWFLDTLSNVSKRDPAAQFIIAYRNKDTVGLRSFAAGGKLLQINRRMEFVFASHSFDVWESWSLEGSLDECRLVNCRNSSAVLDVRVEILAMVGDDGITRWID
For B1, the interaction as percent of wild-type AN (% of wild-type AN) was determined as 1.6.
